No end group written: not given here.
Key:
[1] = target: T1, recombinant human CD28 (R&D systems, Cat. No. 342-CD; human CD28-Ig chimera) (human, UniProt P10747 19-152); assay: direct ELISA, recombinant human sCD28 on maxisorp plates; reference CD28.2
T1 construct: extracellular domain; also called rhCD28; recombinant human sCD28; not shown: Ig (Fc) portion of the bought chimera; not specified

[2] = target: T2, BSA conjugated CD28 stalk region dimeric peptide (human, not fully specified (C-terminus); also: hydrazide-terminated peptide conjugated to S-4FB modified BSA, dimeric peptide); assay: ELISA, antigen on plate, serial dilution of antibody
T2 construct: Dimeric peptide; dimerization confirmed on a non-denaturing gel; also called stalk region peptide; dimeric human CD28 stalk region peptide
T2 peptide: GKHLCPSPLFPGPSKPK

[3] = target: Irrelevant control (Table 1); assay: ELISA, same clone on the irrelevant control; unit not given
[4] = target: T1, recombinant human CD28 (R&D systems, …); assay: direct ELISA, recombinant human sCD28 on maxisorp plates

B1: Antibody #1 (antibody, mouse IgG1, kappa, V domains shown)
VH: QIQLVQSGPELKKPGETVKISCKASGYTLTNYGMNWVKQAPGKGLKWMGWINTYTGKPTYVDDFKGRFAFSLETSASTAYLQINNLKNEDTATYFCARGDANQQFAYWGQGTLVTVSA
VL: DIKMTQSPSSMYASLGERVTITCKASQDINSYLSWFQQKPGKSPKTLIYRANRLVDGVPSRFSGSGSGQDYSLTISSLEYDDMGIYYCLQYDEFPPTFGAGTKLELKR
[1]
  fold detection against CD28.2: ~10 fold

B2: clone M9 (antibody, V domains shown)
VH: DVKLVESGGGLVKLGGSLKLSCVASGFTFSSYYMSWVRQTPEKRLEWVATISDGGDNTYYAGTVTGRFTISRDFAKNTLYLQMNSLTSEDTAVYYCARIHWPYYFDSWGQGTTLTVSS
VL: QFVLSQSPAILSASPGEMLTMTCRASSSVSYMNWYQQKPGSSPKPWIYATSDLASGVPARFSGSGSGTSYSLTISRVEAEDAATYYCQQWSSHPPTFGGGTKLEIR
notes: also called 4G07; antibody M9
[2]
  binding result: binds
[3]
  ELISA signal on irrelevant control: 0.06

B3: Antibody #2 (antibody, mouse IgG2b, kappa, V domains shown)
VH: QVQLQQSGAELARPGASVKLSCKASGYTFTSYWMQWIKKRPGQGLEWIGAIYPGDGDTRYTQKFKGKATLTADKSSTTAYMQLSSLASEDSAVYFCARNYRYSSFGYWGQGTLVTVSA
VL: DIVMTQSPSSLTVTAGEKVTLSCKSSQSLLNSGNQKNYLTWYQQKPGQPPQLLIYWASTRESGVPDRFTGSGSGTDFTLTISSVQAEDLAVYYCQSDYSYPLTFGAGTKLELKR
[4]
  binding result: binds

Source: patent US20210047411A1 (BIOND BIOLOGICS, published 2021)
